Measurements taken from article PMC10689493 (Nature Communications, 2023).

T1: S2hlx-Ex19 epitope scaffold (synthetic design (Mus musculus VPS54 …))
T1 construct: source: E. coli BL-21 (DE3), purified (Ni-NTA, SEC)
T1 chain: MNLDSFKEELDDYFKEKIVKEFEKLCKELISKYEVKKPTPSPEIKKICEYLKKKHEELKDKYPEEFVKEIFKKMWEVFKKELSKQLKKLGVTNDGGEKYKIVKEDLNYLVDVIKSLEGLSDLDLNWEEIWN

T2: S2hlx-7 epitope scaffold (synthetic design (Rhodopseudomonas …))
T2 construct: source: E. coli BL-21 (DE3), purified (Ni-NTA, SEC)
T2 chain: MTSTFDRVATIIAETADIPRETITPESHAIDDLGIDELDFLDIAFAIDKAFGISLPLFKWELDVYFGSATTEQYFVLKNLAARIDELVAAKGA

T3: synthesized stem helix peptide (1140-1164) (SARS-CoV-2, UniProt P0DTC2)
T3 chain: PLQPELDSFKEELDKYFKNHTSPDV


How the values were obtained:
[1] = target: T1, S2hlx-Ex19 epitope scaffold; assay: SPR; conditions: both partners purified
[2] = target: T4, synthesized SARS-CoV-2 stem helix peptide (residues 1147-1161) (SARS-CoV-2, UniProt P0DTC2); assay: ELISA; conditions: both partners purified
T4 construct: source: synthetic peptide

OC43 Spike protein, 2 P = OC43 Spike protein, 2 P (human coronavirus OC43, isolate not …, UniProt P36334, stabilised); assay: ELISA; conditions: both partners purified
S2hlx-7 epitope scaffold = target: T2, S2hlx-7 epitope scaffold; assay: SPR; conditions: both partners purified
[3] = target: T3, synthesized stem helix peptide …; assay: ELISA; conditions: both partners purified
[4] = target: biotinylated SARS-CoV-2 Spike protein (WA-2, 2 P) (SARS-CoV-2 WA-2 (entry: reference …, UniProt P0DTC2, stabilised, biotinylated))

Binder	binding result [2]	binding result (OC43 Spike protein, 2 P)	binding result [4]	other results
CC40.8 mAb (antibody, V domains shown, IgG; source: Expi293F, transfected, purified (Protein A)) VH: EVQLLESGGGLVQPGGSLRLSCAASGFTFSSYVMTWARQAPGKGLEWVSAISGTGYTYYADSVKGRFTVSRDNSKNTLFLQMSSLRAEDTAVYYCAITMAPVVWGQGTTVTVSS VL: SYELTQPPSVSVSPGQTARITCSGDALPKRYAYWYQQKSGQAPILVIYEDKKRPSGIPERLSGSKSGTVATLTISGAQVEDEADYYCYSTDSSGNHAVFGGGTQLTVL	no binding	binds	–	Kd [1]: 6.7 nM
S2P6 mAb (antibody, V domains shown, IgG; IGHV1-46/IGKV3-20; source: Expi293F, transfected, purified (Protein A)) VH: EVQLVQSGAEVKKPGASVKVSCKASGYTFTSQYMHWVRQAPGQGLEWIGIINPSGVHTSYAQKFQGRVTLTRDTSTSTLYMELSSLRSEDTAVYYCARGSPKGAFDYWGQGTLVTVSS VL: not shown	–	binds	–	–
DH1057.1 mAb (antibody, V domains shown, source: Expi293F, transfected, purified (Protein A)) VH: EVQLVESGTEVKKPGASVKVSCKTSGYIFTNYYIHWVRQAPGQGLEWMGIFNPNGGGTSYAQKFQGRITLTGNTSANTGYMVLRSLTSEDTAVYYCARDPRTSGDNDGFDMWGQGTKVTVSS VL: VLTQSPATLSLSPGERATLSCRASQSLSSYNYLAWYQQKPGQAPRLLIYAASKRATGIPARFSGSGSGTDFTLTISSLEPEDFAVYFCQQRSNRPPAWTFGQGTKVEIK	binds	–	–	fold better binding than spike (S2hlx-7 epitope scaffold): > 10 fold; binding result [3]: binds
DH1501.3 (antibody, V domains shown) VH: QVQLVQSGAEVKKPGASVRLSCKASGDTFTNEYVQWVRQAPGQGLEWMGLINPSGSGTAFARNFQGRVSMTRDTSTRTVYMDLTSLRYEDTAVYYCARMSRAGTFDLWGQGTMVTVSS VL: EIVLTQSPDTLSLSLGERATLFCRASETIDSRYLAWYQQKPGRAPRLLMSGTSVRATGIPDRFSGSGSGTDFTLTITRLEPEDFAVYYCQQYGSSPPRYTFGQGTKLAMK	–	–	binds	–
DH1501.1 (antibody, V domains shown) VH: EVQLVESGAEVKKPGASVRVSCKASGFTFTDHYMHWVRQAPGQGLEWMGLINPTGVNTFYAQNFRGRVTMTRDTSTKTDYLEVRSLTSQDTAMYYCARMSRYGAFDIWGQGTMVTVSL VL: EIVLTQSPGTLSLSPGERATLSCRASQSVGSGYLAWYQQKPGQAPRLLIYGASVRATGIPDRFSGSGSGTDFSLTINRVEPEDFAMYYCQNYGSSPPRYTFGQGTKLEIK	–	–	binds	–
DH1501.2 (antibody, V domains shown) VH: EVQLVESGAEVKKPGASVRLSCKASGDTFNNKYVHWVRQAPGQGLEWMGLINPSGSGTAFAQKFQGRVSMTRDTSTRTVYLGLTSLTYEDTAVYYCARMSRAGTFDIWDQGTMVTVSS VL: EIVLTQSPGTLSLSPGDRATLSCRASENVGTSYLAWYQQKPGQAPRLLISGTSSRATGVPDRFSGSGSGRDFTLTISRLEPEDFAVYYCQQYGSSPPRYTFGQGTKLDMK	–	–	binds	–
